In the supplement of paper PMC7877785:
± gives the uncertainty stated by the source.

Test: self-splicing fitness, log relative to wild type (ln ratio); higher = more splicing; Tetrahymena group I intron in knt gene, E. coli kanamycin selection, DiMSum; sequences stand for … in CUCUCU…GGAGGGAAAAGUUAUCAGGCAUGCACCUGGUAGCUAGUCUUUAAACCAAUAGAUUGCAUCGGUUUAAAAGGCAAGACCGUCAAAUUGCGGGAAAGGGGUCAACAGCCGUUCAGUACCAAGUCUCAGGGGAAACUUUGAGAUGGCCUUGCAAAGGGUAUGGUAAUAAGCUGACGGACAUGGUCCUAACCACGCAGCCAAGUCCUAAGUCAACAGAUCUUCUGUUGAUAUGGAUGCAGUUCACAGACUAAAUGUCGGUCGGGGAAGAUGUAUUCUUCUCAUAAGAUAUAGUCGGACCUCUCCUUAAUGGGAGCUAGCGGAUGAAGUGAUGCAACACUGGAGCCGCUGGGAACUAAUUUGUAUGCGAAAGUAUAUUGAUUAGUUUUGGAGUACUCGUGGUCG
Method in brief: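 Fitness was computed with DiMSum as the error-weighted combination of replicate fold changes, kanamycin versus none, each normalised to wild type. The library randomised all eight intron nucleotides of the P1ex region, with the intron placed in the knt kanamycin-resistance gene on pET-22b(+) in E. coli BL21(DE3). Six replicate transformations were grown overnight at 37°C or 30°C on LB agar with or without 25 μg/mL kanamycin, plus 100 μg/mL carbenicillin, 50 μM IPTG and 0.2% rhamnose. Pooled colonies were amplicon-sequenced on an Illumina HiSeq 2500.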

Row | Sequence | self-splicing fitness (ln) (30 °C) | self-splicing fitness (ln) (37 °C)
1 | UGUAAGCAAUAUUACGACAA | -0.378 ± 0.16 | -0.666 ± 0.14
2 | UGUAAGCAAUAUUACGACAC | -2.51 ± 0.41 | –
3 | UGUAAGCAAUAUUACGACGG | -1.46 ± 0.11 | -0.11 ± 0.12
4 | UGUAAGCAAUAUUACGACUC | -1.52 ± 0.19 | -0.632 ± 0.25
5 | UGUAAGCAAUAUUACGAGUU | -2.78 ± 0.13 | -2.69 ± 0.23
6 | UGUAAGCAAUAUUACGAUAU | -3.01 ± 0.3 | -0.86 ± 0.24
7 | UGUAAGCAAUAUUACGAUUG | -1 ± 0.081 | -0.574 ± 0.097
8 | UGUAAGCAAUAUUACGCAAU | -3.44 ± 0.18 | -3.36 ± 0.2
9 | UGUAAGCAAUAUUACGCAUG | -1.95 ± 0.099 | 0.308 ± 0.14
10 | UGUAAGCAAUAUUACGCCCU | -0.237 ± 0.19 | -0.575 ± 0.24
11 | UGUAAGCAAUAUUACGCCUC | -3.28 ± 0.32 | -2.25 ± 0.24
12 | UGUAAGCAAUAUUACGCCUU | -1.69 ± 0.35 | -1.5 ± 0.43
13 | UGUAAGCAAUAUUACGCGAC | -2.37 ± 0.27 | -2.4 ± 0.36
14 | UGUAAGCAAUAUUACGCGCG | -0.498 ± 0.11 | -0.329 ± 0.15
15 | UGUAAGCAAUAUUACGCUUU | -3.09 ± 0.26 | -2.72 ± 0.27
16 | UGUAAGCAAUAUUACGGAAA | -1.83 ± 0.17 | -1.67 ± 0.2
17 | UGUAAGCAAUAUUACGGAAC | -2.78 ± 0.27 | -1.77 ± 0.26
18 | UGUAAGCAAUAUUACGGAGG | -3.23 ± 0.21 | -3.5 ± 0.33
19 | UGUAAGCAAUAUUACGGCGA | -0.0897 ± 0.085 | -0.0127 ± 0.11
20 | UGUAAGCAAUAUUACGGGUC | -3.01 ± 0.41 | –
21 | UGUAAGCAAUAUUACGGGUU | -3.86 ± 0.27 | -2 ± 0.2
22 | UGUAAGCAAUAUUACGUAAU | -2.84 ± 0.095 | -1.33 ± 0.12
23 | UGUAAGCAAUAUUACGUAGG | -1.71 ± 0.15 | -0.712 ± 0.2
24 | UGUAAGCAAUAUUACGUCAC | -2.9 ± 0.19 | -2.28 ± 0.25
25 | UGUAAGCAAUAUUACGUCAU | -2.39 ± 0.16 | -1.28 ± 0.19

Row | Sequence | self-splicing fitness (ln) (30 °C) | self-splicing fitness (ln) (37 °C)
26 | UGUAAGCAAUAUUACGUCGG | -1.67 ± 0.13 | -1.95 ± 0.14
27 | UGUAAGCAAUAUUACGUGAA | -1.8 ± 0.16 | 0.0061 ± 0.14
28 | UGUAAGCAAUAUUACGUGCU | -1.48 ± 0.13 | -0.148 ± 0.16
29 | UGUAAGCAAUAUUACGUUAU | -3.54 ± 0.22 | -2.73 ± 0.26
30 | UGUCAGCAAUAUUACGACGG | -1.06 ± 0.076 | -0.98 ± 0.092
31 | UGUCAGCAAUAUUACGAGAA | -1.43 ± 0.27 | -1.48 ± 0.22
32 | UGUCAGCAAUAUUACGAUCC | -1.48 ± 0.086 | -0.717 ± 0.089
33 | UGUCAGCAAUAUUACGAUUU | -0.0817 ± 0.061 | 0.461 ± 0.082
34 | UGUCAGCAAUAUUACGCUAG | -0.41 ± 0.061 | -0.214 ± 0.077
35 | UGUCAGCAAUAUUACGCUCA | 0.0629 ± 0.11 | -0.236 ± 0.11
36 | UGUCAGCAAUAUUACGCUCG | -0.552 ± 0.16 | 0.987 ± 0.32
37 | UGUCAGCAAUAUUACGGCCA | -0.139 ± 0.11 | -0.162 ± 0.12
38 | UGUCAGCAAUAUUACGGGGA | -1.32 ± 0.061 | -0.476 ± 0.07
39 | UGUCAGCAAUAUUACGUCAC | -3.9 ± 0.39 | -3.29 ± 0.37
40 | UGUCAGCAAUAUUACGUCAU | -1.79 ± 0.1 | -1.38 ± 0.14
41 | UGUCAGCAAUAUUACGUCGU | -1.49 ± 0.1 | -0.759 ± 0.11
42 | UGUCAGCAAUAUUACGUGGC | -4.53 ± 0.31 | -3.13 ± 0.31
43 | UGUCAGCAAUAUUACGUUAA | -0.609 ± 0.1 | -0.411 ± 0.11
44 | UGUCAGCAAUAUUACGUUAC | -3.4 ± 0.27 | -2.77 ± 0.43
45 | UGUGAGCAAUAUUACGAAAG | -2.98 ± 0.18 | -2.69 ± 0.27
46 | UGUGAGCAAUAUUACGAGCG | -1.29 ± 0.12 | -0.066 ± 0.12
47 | UGUGAGCAAUAUUACGAUAA | -2.33 ± 0.16 | -1.92 ± 0.21
48 | UGUGAGCAAUAUUACGAUAG | -2.74 ± 0.24 | -0.644 ± 0.2
49 | UGUGAGCAAUAUUACGAUGU | -3.05 ± 0.18 | -2.08 ± 0.24
50 | UGUGAGCAAUAUUACGCAUA | -1.6 ± 0.23 | -2.46 ± 0.33

Row | Sequence | self-splicing fitness (ln) (30 °C) | self-splicing fitness (ln) (37 °C)
51 | UGUGAGCAAUAUUACGGCUC | -3.06 ± 0.44 | -3.18 ± 0.47
52 | UGUGAGCAAUAUUACGGUAG | -2.45 ± 0.18 | -1.79 ± 0.21
53 | UGUGAGCAAUAUUACGGUGU | -3 ± 0.31 | -2.84 ± 0.24
54 | UGUGAGCAAUAUUACGUACG | -0.814 ± 0.1 | -0.164 ± 0.12
55 | UGUGAGCAAUAUUACGUCGC | -1.15 ± 0.21 | –
56 | UGUGAGCAAUAUUACGUUGU | -3.15 ± 0.25 | -3.13 ± 0.47
57 | UGUUAGCAAUAUUACGACUU | -0.357 ± 0.11 | 0.12 ± 0.12
58 | UGUUAGCAAUAUUACGAGUC | -4.22 ± 0.42 | –
59 | UGUUAGCAAUAUUACGAGUU | -3.66 ± 0.28 | -1.85 ± 0.19
60 | UGUUAGCAAUAUUACGAUAG | -2.07 ± 0.26 | 0.173 ± 0.17
61 | UGUUAGCAAUAUUACGAUCG | -0.427 ± 0.26 | -0.0339 ± 0.28
62 | UGUUAGCAAUAUUACGAUGU | -1.78 ± 0.12 | -0.548 ± 0.13
63 | UGUUAGCAAUAUUACGAUUC | -2.39 ± 0.18 | -0.83 ± 0.18
64 | UGUUAGCAAUAUUACGCACU | -0.724 ± 0.1 | -0.553 ± 0.12
65 | UGUUAGCAAUAUUACGCGAU | -3.44 ± 0.47 | -1.9 ± 0.4
66 | UGUUAGCAAUAUUACGCGCC | -1.13 ± 0.14 | -0.207 ± 0.24
67 | UGUUAGCAAUAUUACGCGGC | – | -3.46 ± 0.29
68 | UGUUAGCAAUAUUACGCUGU | -2.07 ± 0.23 | -0.914 ± 0.2
69 | UGUUAGCAAUAUUACGCUUA | -1.73 ± 0.18 | -0.323 ± 0.21
70 | UGUUAGCAAUAUUACGGAAG | -3.18 ± 0.3 | -1.37 ± 0.17
71 | UGUUAGCAAUAUUACGGACG | -0.811 ± 0.15 | -0.257 ± 0.17
72 | UGUUAGCAAUAUUACGGCGG | -0.72 ± 0.09 | -0.356 ± 0.1
73 | UGUUAGCAAUAUUACGGGAU | -1.94 ± 0.23 | –
74 | UGUUAGCAAUAUUACGGGGC | -3.37 ± 0.34 | -3.32 ± 0.46
75 | UGUUAGCAAUAUUACGGGUC | -2.97 ± 0.44 | -1.53 ± 0.3

Row | Sequence | self-splicing fitness (ln) (30 °C) | self-splicing fitness (ln) (37 °C)
76 | UGUUAGCAAUAUUACGGUCU | -1.33 ± 0.09 | -0.963 ± 0.1
77 | UGUUAGCAAUAUUACGUAUA | -1.7 ± 0.12 | -0.458 ± 0.11
78 | UGUUAGCAAUAUUACGUAUG | -0.871 ± 0.13 | -0.234 ± 0.17
79 | UGUUAGCAAUAUUACGUCAA | -1.27 ± 0.12 | -1.2 ± 0.11
80 | UGUUAGCAAUAUUACGUUCA | 0.071 ± 0.12 | -0.114 ± 0.14
81 | UUAAAGCAAUAUUACGAAUC | -3.58 ± 0.26 | -1.79 ± 0.16
82 | UUAAAGCAAUAUUACGACAC | -1.54 ± 0.18 | -0.0824 ± 0.22
83 | UUAAAGCAAUAUUACGAGCA | -0.0954 ± 0.082 | 0.177 ± 0.11
84 | UUAAAGCAAUAUUACGAGUA | -1.08 ± 0.096 | -0.715 ± 0.11
85 | UUAAAGCAAUAUUACGAUAC | -1.57 ± 0.13 | -0.384 ± 0.16
86 | UUAAAGCAAUAUUACGAUUC | -1.07 ± 0.1 | -0.514 ± 0.11
87 | UUAAAGCAAUAUUACGCAAC | -3.92 ± 0.25 | -1.75 ± 0.14
88 | UUAAAGCAAUAUUACGCACA | 0.245 ± 0.098 | -0.401 ± 0.12
89 | UUAAAGCAAUAUUACGCUAA | -0.626 ± 0.1 | -0.111 ± 0.12
90 | UUAAAGCAAUAUUACGCUAG | -0.313 ± 0.092 | 0.141 ± 0.11
91 | UUAAAGCAAUAUUACGCUCU | -0.795 ± 0.15 | 0.21 ± 0.14
92 | UUAAAGCAAUAUUACGCUUU | -4.36 ± 0.35 | -1.94 ± 0.24
93 | UUAAAGCAAUAUUACGGCCC | -1.67 ± 0.17 | 0.305 ± 0.23
94 | UUAAAGCAAUAUUACGGCUC | -0.0999 ± 0.18 | 0.714 ± 0.23
95 | UUAAAGCAAUAUUACGGGCA | -0.351 ± 0.12 | 0.329 ± 0.16
96 | UUAAAGCAAUAUUACGGUCC | – | -1.2 ± 0.36
97 | UUAAAGCAAUAUUACGGUCU | -0.805 ± 0.074 | -0.3 ± 0.098
